Laboratory results as given in patent publication US9090994B2.

Legend:
[1] = molecular target: c-Myc-containing recombinant protein; assay: SPR (Biacore T200), c-Myc-containing recombinant protein immobilised, soluble Fab injected at 5-80 nM, 1:1 Langmuir fit
[2] = molecular target: c-Myc-containing recombinant protein; assay: SPR; fold change of KD, WT is itself the reference

B1: parental murine Fab of aM (murine monoclonal antibody raised against c-Myc peptide) (Fab, V domains shown)
VH: QIQLVQSGPELKKPGETVRISCKASGYTFTTAGMQWVQKMPGKGLKWIGWINTHSGVPKYAEDFKGRFAFSLETSASTAYLQMTNLNNEDTATYFCARGYGKGGYFAMDYWGQGTSVTVSS
VL: DVVMTQIPFSLPVSLGDQASISCRSSQSLVHSNGNTYLHWYVQKPGQSPKLLIYKVSNRFSGVPDRFSGSGSGTYFTLKISRVEAEDLGVYFCSQSTRVPWTFGGGTKLEIK
A Kd [1] of 110 nM, a koff [1] of 0.018 s⁻¹ and a kon [1] of 160000 M⁻¹ s⁻¹ were found for B1 in this work. The Fold change [2] was 1 fold.
